Data taken from a protein production outcome set (Wang et al. 2014).

Test: label from the status in PepcDB records

| Sequence | protein production |
| --- | --- |
| MKTLVIVAHPNLETSVVHKRWVEELKKYPEKYTVHELSDVYPDGNIDAEKEQKLVESHGNLVLQFPIYWFNCPPLLKKWLDDVLAYGWAYGSNGGDRLNNRKVALGVSAGIKEEDYRENGRYRYTLEQILVPFETTFRYCRADYRSFFAFYGKEKEPGGNEEEENEPGAGELEKSARDYLHFIDHM | failed |
| MSAYIAPSQIAQRQLEYFNGKHVLVAGEVEDMFPLELTAHCESVEVFTSNYSYFRQIRHSDKIKSHFGSEFDVETQADMLLLYWPKAKAEAEYLLAMLMAKLGVNTEIVVVGENRSGVKSIEKMFKEYGPVNKYDSARRCSFYWGNCLNEPKPFNQEEWFKSYTVTLGEQSLTVKSLPGVFSHGEFDLGSRLLLETLPNLSGKVLDFGCGAGVLGAFMAKANPEIAIEMCDINAYAITSSQATLEANGLSGRVFASDIYSDTANDYRFIISNPPFHSGLDTNYNAAETLLGHAPQHLSNHGEMIIVANSFLKYPPIIENAFNNCETLNKTNKFSIYYAKKS | failed |
| MPFHGDAQENTWPNSRASPMSLASKLPRFRWLLPAFVVLVGVVLTIVMHWDDRAGLWWKESQASQQQRDESIWLPGYRVVIDAKPLQGLEEEETSDLAYNPATRTLFTVTGKRPLLVELSLTGDVLRTIPLLGLSNPEGVAVLENGNVAVTDERRNTLTIFHVDPQTAELSTKSLAEFPLGNIGKKNKGFEGIAWDPRQQRLLLSKERDPMTLFSWKSDGGPSLSGAMTALPSDDLYMRNVSALSVDPRTGHTLVLSAESHLLLELDEKGEPVSFISLLGGFNGLDSKIPRAEGVAIDDEGTIYMVSEPNLFYVFRKKSGERLATSDADLEHHHHHH | failed |
| MRLLAILILCILVAACDRQAATEELTEARSAFANREWNDAERLLEGYLRRNPEGAQRWEAWNLLVEVAHRVRNDERATVELLETMYLENGSNPERAYDILTRLGELLEAGRDFRRAAEVWPRVLELPGLTPDTRALVSRRLARILVMQRRFPEAEERLKACLDTEGLSTEGRAGCLYDLADLNVASEHLDVAVDLATTLVGLEGLTPELRSQAGFLLADALEQRGRFAEALERFEALRGVYPNDMVIDTRVRHLKGRLGRK | failed |
| MMSNGGDSSEIVRELEELKLKKAEIEHRISTLEAKLQDTAAVELYDAVSNGDSYLTAPELEHGLSPDQIYRYSRQLLLPSFAVEACGVGQLGIIDHDVVELNNMHRQIIHTEAFIGHPKVKSAAAACRSINSTIKVDEYVEALRTSNALEILSQYDIIVDATDNPPSRYMISDCCVLLGKPLVSGAALGMEGQLTVYNHNGGPCYRCLFPTPPPTSACQRCSDSGVLGVVPGVIGCLQALETIKLASLVGEPLSERMLLFDALSARMRIVKIRGRSSQCTVCGDNSSFNKQTFKDFDYEDFTQFPLFAGPLNLLPAESRISSKEFKEILQKKEQHVLLDVRPSHHYKIVSLPDSLNIPLANLETRLNELTSALKEKGNGHANTESCTNPSVFVVCRRGNDSQRAVQYLRESGFDSAKDIIGGLEAWAANVNPNFPTY | failed |
| MTKETDDDDNDIPIQEDDEEKNPDQDYQELLDGLLNLSGRQLLMFYWDHELTEAVREGFEVISQKWMKGIDQMWVHWNTSRATVRSESASQFRNSDRGGLGPHRNISSQKSFVQVHEELEELYGRHVSLGEVFMKTHTRADGSFVDAKAEKVAEVYKKACEEKLTEIDDDGPKTSMNSSELSTHRDLNIDDKNEIFLQSAS | failed |
| TQKKVEVETLEQKIIRADRELAELLEIDEGDEVNYRVVYLRANGEIYAKAISFTPLKRLENSFREDLMRADIPIGKIMRKHNIEARREIRWSRVEEADLALAKELGIADRRVISRNYNIIHRGKVLINITEFFPMERFR | failed |
| MAEASPQPGRYFCHCCSVEIVPRLPDYICPRCESGFIEELPEETRNTENGSAPSTAPTDQNRQPFENVDQHLFTLPQGYSQFAFGIFDDSFEIPTFPPGAQADDGRDPESRREREHQSRHRYGARQPRARLTARRATGRHEGVPTLEGIIQQLVNGIISPAAVPSLGLGPWGVLHSNPMDYAWGANGLDTIITQLLNQFENTGPPPADKEKIQALPTVPVTEEHVGSGLECPVCKEDYALGESVRQLPCNHLFHDSCIVPWLEQHDSCPVCRKSLTGQNTATNPPGLTGVGFSSSSSSSSSSSPSNENATSNS | not failed |
| MTAAILVTGATGKLGQRVVNRLLQKQAKVRVLTRRREDALKLWGDSVDIAEGNFSDPASLKGASRDVDRVFLLSPIGKTLAADQNAVVDAALSAGVSQIVKLSGSDWTLKNAARSISGTAHAAVEKHLAETGIAHTVLRPNAWMQVALEPVVAALRNGEDVPARFGNAAVSFIDADDIADVAVEALSASAPPAGTLVLTGHEALAALGIARIAARILHRPVGVSHQSASTFPAHIGGFEQKAIAEFGQLIGEGLAASTTDIVEQIIGHPPRSVENYLRARLAVAQQGDHSEGEKTWR | failed |
| MMNRNLVVALAGNPNCGKTSLFNELTGSKQHVGNWPGVTVEKKEGKLKFEGREITIVDLPGTYSLGAYSEDEVVARDFILKDKPDVVINVVDACNLERNLYLTTQILETGAKVVLALNMMDEANTRNIDINIEKLQKSIGIPVVPTVATKKQGIKELVKNAIKLGDSESEELYTIDYGSDIQKEVDGIKAAIDEASVTLEYPKAWVSLKLLENDDYIRKYIDNSIKDDEVKHKVSEGIENLTSIIGYEPDAFIVDKRYELISKFVKNSVKKNEVQEESTSDKIDKVLTNKFLGIPIFAIIMFAVYQVSINFGNGTLSDLINDSLGQLGTNIAFTLDGFGVPKIIGAFVRDGVFAGVGSVLGFFPMILIMFFLISLLEDSGYMARAAYVMDRLMSAVGLHGKTAVSLIVGSGCNVAGIMSARTLESKKDRMIAILITPFISCPARLTVYGVFVGAFFAKQKLGIFSLGGIIIFLLYALGIFVAICAGKFFSSKVFEGETSYFVMELPPYRLPTLKGILIHMWEKSGHFLKKAGTIILGVCIIVWILADLPAGVEYGSKDSLLGIIGTFIAPIFKPAGFGSWQAGVALITGFAAKEAVVGTLGTIYGVNEGTQLFHAIHNTFTPLSAISFMIMTLLYVPCVATIGAVKSETNSNKWTVAVIIYTCVIGWVLATIFYQVGRLLGYV | failed |
| MSGTLFTYRRKVDFGDCDSARIYFTPRAVDYAVEAVEAWFGDVLGVSWADLFLRHDLDVTFVRMGCEYFRPVIADQTVHVRVRATAVDRSSVTFSAAGEDDSGGVFFRATLVAQFRAGRNRAPVPIPPRYRERMEDCLEQADGKSGTVAQRVGGEPFLSRLQSDGVHFTVRRRVVYGDCTLSGTVYAPRLFNYAVEAVGEWYRETLGISWREQCIRLRGAPFREVWCERLAPLVPGQVITMTVGIPRLGKSSIGYEVVGYDDRGEPCFQVGMSACYISEETGSIKAIPFPDDMRSRILAYQVLCDQGVIPATAS | failed |
| MQFTDGGKEVELRLRLKTGEILSPKDISVDADGTSLAVKEKRNGLLITLLETNHLFEKIMPSETIWYIDEDQLVVNMKKVDGELKWPDIVESWESLTAGMMQLLKGASIYIVGDSTEINQKVSRELAVGLGYSPLDSKELLESFSKQTIDSWILAEGPDSVAEAESSVLESLSSHVRTVVSTLGGKHGAAGRADQWRHLYSGFTVWVSQTEATDEESAKEEARRSKQEREIGYSNADVVVKLQGWDPTHAKSVAQASLSALKQLIISDKGLPGNK | failed |
| MGKRFSSFQAAQIRIARPTGQLDEIIRFYEEGLCLKRIGEFSQHNGYDGVMFGLPHADYHLEFTQYEGGSTAPVPHPDSLLVFYVPNAVELAAITSKLKHMGYQEVESENPYWSNGGVTIEDPDGWRIVFMNSKGISGK | not failed |
| MTYEAGCGLIKALEDPDNRVRQRAVKTLGKRGNPDVLEDLMEALKDSRQPVQEAASEALRKIIAASDSVPVLVKALDATDRNVRKAAIEALWKAGTPEAIPPLLRELDDADWYLRSRAADALADIASPEAALGLIKVMDIHDSPVKKIIVNALGKIGTVEAVEGLVKALEDLEHHHHHH | failed |
| MSANVQEAANAAIEPASFVKVPMPEPPSSLQQLINDWQLIKHREGGYFKETDRSPYTMEVEKPVNGGSGNTEMVTRNQSTLIYYLLTPDSPIGKFHKNINRIIHILQRGKGQYVLVYPDGQVKSFKVGFDYKNGEVSQWVVPGGVFKASFLLPNEEFDNGFLISEVVVPGFDFEDHTFLKGEDELKHLVGPEKAAELAFLA | not failed |
| HQIVHVRGDSETDLEALFNAVMNPKTANVPQTVPMRLRKLPDSFFKPPEPKSHSRQASTDAGTAGALTPQHVRAHSSPASLQLGAVSPGTLTPTGVVSGPAATPTAQHLRQSS | failed |
| MSAYIIETLIKILILVAVFSALGGFATYIERKVLAYFQRRLGPCYVGPFGLLQVAADGIKLFTKEDIIPQGANKFIFTLAPIIAMVSAFVSMAPIPFFPNFTLFGYEIKPLISDINIGFLFFLAVGSAGIYAPILAGLASNNKYSLIGSARATIQLLSFEVVSTLTILAPLMVVGSLSLVEINHYQSGGFLDWLVFKQPLAFVLFLIASYAELNRTPFDLLEHEAEIVAGYCTEYSGLKWGMFFLAEYAHLFAFSFVISIVFFGGFNAWGFIPGGIAILIKAGFFVFLSMWVRATYPHVRPDQLMDMCWKIMLPLALLNIVLTGIIILI | failed |
| MKVELPQGGYQGLAGDGVVEFRGVPFALPPVGELRFKAPRPLPDSDRSVNADRYPLPSLQVKNPLMGVEDSGEDCLYLNIWVPEGEGPFPVMLWYHGGGYIAGSVSQPLYNGAALAASQKVVVVHAAYRLGAHGFADFATIAPELEADSNLGLRDQVAALEWVNRHIEAFGGRPDRVTLFGESAGGFSVATLMATPRARPLFQAAIVQSGAGDFALAPEEVAKVTSAFVEALPGDGSAADKLRQADPKAWIAAQNQALRTLVKRGLRDTTPQFAMNFQPMVDGDLLPRLPVDAIADGEARDIALMASVCRDEYHFFQYAGPMAGFPSVEELRRFDEAEILRRFQRALPQHGQQALSYYQRTVTPDPQRSNMDWFSAMETDRLFRVPTLRLLDAQAAHRDDTRGLQFTWTSQQFGVPMGACHVIDVPFVFGVTDTPAGMFFTGGGEPARALAAEVQKVWGDFAHGRAVQGPAWKDTRRVRQFGPGDAEAALLDADGEALWADIIPVPGTAKPGQGA | not failed |
| MMTHYSDNTLKVAHQGFEFFTQGLATGEWQKFLDMLTEDFTFWFPMGEFHGLNVGKERAKEFFTYVSESFHTGIQISSLDRVTSNETTVVFEFRDEGLFLGKPYKNRVAVSFDVRGDKICSYREYFGSDGKSN | not failed |
| MTTNTIMEQEARTAPQKIAEQLLANDAITESLGSVLREFKPKFVMIVGRGSSDHAGVFAKYLFEIEASIPTFAAAPSVASVYGKTLKLAGGLVIVISQSGRSPDILAQARMAKNAGAFCVALVNDETAPIKDIVDVVIPLRAGEEKAVAATKSYLATLSALLQVAAKWTQNESLVEAVNSLPQALQAAVDAEPQLRAGSLTDVKNLVVLGRGFGYAVSKEIALKLKEVCAIHAEAFSSAEFLHGPVTLVEKKLSILDVCIRDESYGSHVEQIANVKQRGANLIHLHQTSADIHPRIAPLALLQRFYIDVAAVAIALGINPDKPAGLKKVTQTL | not failed |
| MADIPKSPTEPNKPVDTKLQVDPNTPVDPKPPVVEPKPPVVDPKPPVVDPKPPEPTHPTITVSPKTGDILVEWYAGNGKYYSSVFFNDFYTSQKELDENALNNLTNYYSKKEDWTLVSQLNTPSKSKSVAEHKLALDNVEQILTSGEYSNERALFYLRNQMNVLNESVTTQEELQRYLSENKKDYIKSVAEKVYQTATEEKREWSNTGDVASLEQALSKFYLVTSVFESVDPALV | failed |
| SERYAAALEEVADGARQQERHYQLLSALQSLVKELPSSFQQRLSYTTLSDLALALLDGTVFEIVQGLLEIQHLTEKSLYNQRLRLQNEHRVLRQALRQKHQEAQQACRPHNLPVVQAAQQRELEAVEHRIREEQRAMDQKIILELDRKVADQQSTLEKAGVAGFYVTTNPQELMLQMNLLELIRKLQQRGCRAGNAALGLGGPWQSPAAQCDQKGSPVPP | not failed |
